FireProtDB (doi:10.1021/bi00150a030)

Details: Rattus norvegicus, pH 7, Fluorescence, Sodium-Potassium phosphate 0.1 M; for denaturant m value / denaturant midpoint (higher = more stable) / unfolding free energy: 15 °C, GdnHCl; for Tm / change of melting temperature, mutant - wild type (higher = more stable): Thermal

Cytochrome c, somatic Y68F, P62898, sequence (P62898 whole entry Y68F): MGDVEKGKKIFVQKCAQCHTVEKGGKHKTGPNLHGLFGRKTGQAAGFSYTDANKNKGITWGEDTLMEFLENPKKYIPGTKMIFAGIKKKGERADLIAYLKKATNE
Cytochrome c, somatic P31A, P62898, sequence (P62898 whole entry P31A): as the sequence (P62898 whole entry Y68F) above, with P31A, F68Y counted along it
Cytochrome c, somatic wild type, P62898, sequence (P62898 whole entry): as the sequence (P62898 whole entry Y68F) above, with F68Y counted along it
Cytochrome c, somatic P31A|Y68F, P62898 P31A Y68F, sequence (P62898 whole entry P31A/Y68F): as the sequence (P62898 whole entry Y68F) above, with P31A counted along it

Cytochrome c, somatic P31A|Y68F, P62898 P31A Y68F
denaturant m value (structure 1I5T): 1.16 kcal/mol/M
denaturant midpoint (higher = more stable) (structure 1I5T): 5.81 M
unfolding free energy (structure 1I5T): 6.74 kcal/mol
Tm (structure 1I5T): 62 °C
change of melting temperature, mutant - wild type (higher = more stable) (structure 1I5T): 2 °C

Cytochrome c, somatic Y68F, P62898
denaturant m value (structure 1I5T): 0.86 kcal/mol/M
denaturant midpoint (higher = more stable) (structure 1I5T): 8.33 M
unfolding free energy (structure 1I5T): 7.19 kcal/mol
Tm (structure 1I5T): 90 °C
change of melting temperature, mutant - wild type (higher = more stable) (structure 1I5T): 30 °C

Cytochrome c, somatic P31A, P62898
denaturant m value (structure 1I5T): 0.7 kcal/mol/M
denaturant midpoint (higher = more stable) (structure 1I5T): 5.38 M
unfolding free energy (structure 1I5T): 3.76 kcal/mol
Tm (structure 1I5T): 51 °C
change of melting temperature, mutant - wild type (higher = more stable) (structure 1I5T): -9 °C

Cytochrome c, somatic wild type, P62898
denaturant m value: 1.21 kcal/mol/M
denaturant midpoint (higher = more stable): 7.6 M
unfolding free energy: 9.15 kcal/mol
Tm: 60 °C
